Test results published in PMC2816676, “DNA Binding of Centromere Protein C (CENPC) Is Stabilized by Single-Stranded RNA”.

T1: CENPC full length (Zea mays) (UniProt Q9XHE1)
T1 sequence: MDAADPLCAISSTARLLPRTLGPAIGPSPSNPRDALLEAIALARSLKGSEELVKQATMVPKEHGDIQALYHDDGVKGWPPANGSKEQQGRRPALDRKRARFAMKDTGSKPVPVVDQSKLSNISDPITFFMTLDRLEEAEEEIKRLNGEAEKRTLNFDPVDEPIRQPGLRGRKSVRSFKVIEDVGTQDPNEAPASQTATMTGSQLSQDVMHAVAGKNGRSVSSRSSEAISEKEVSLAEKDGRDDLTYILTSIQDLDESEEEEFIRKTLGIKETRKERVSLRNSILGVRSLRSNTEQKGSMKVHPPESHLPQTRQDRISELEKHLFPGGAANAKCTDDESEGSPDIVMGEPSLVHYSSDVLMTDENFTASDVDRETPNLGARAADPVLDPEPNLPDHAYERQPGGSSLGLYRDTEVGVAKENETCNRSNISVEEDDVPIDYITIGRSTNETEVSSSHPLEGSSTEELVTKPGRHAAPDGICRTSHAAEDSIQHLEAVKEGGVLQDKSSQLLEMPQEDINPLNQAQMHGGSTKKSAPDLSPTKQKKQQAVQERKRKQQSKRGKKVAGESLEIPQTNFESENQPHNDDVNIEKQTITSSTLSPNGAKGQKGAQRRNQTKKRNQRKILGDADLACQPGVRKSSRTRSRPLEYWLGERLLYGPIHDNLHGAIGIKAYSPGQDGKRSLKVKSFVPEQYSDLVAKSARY

T2: CENPC Δexon 9-12 (Zea mays, UniProt Q9XHE1 1-701, del503-624)
T2 sequence: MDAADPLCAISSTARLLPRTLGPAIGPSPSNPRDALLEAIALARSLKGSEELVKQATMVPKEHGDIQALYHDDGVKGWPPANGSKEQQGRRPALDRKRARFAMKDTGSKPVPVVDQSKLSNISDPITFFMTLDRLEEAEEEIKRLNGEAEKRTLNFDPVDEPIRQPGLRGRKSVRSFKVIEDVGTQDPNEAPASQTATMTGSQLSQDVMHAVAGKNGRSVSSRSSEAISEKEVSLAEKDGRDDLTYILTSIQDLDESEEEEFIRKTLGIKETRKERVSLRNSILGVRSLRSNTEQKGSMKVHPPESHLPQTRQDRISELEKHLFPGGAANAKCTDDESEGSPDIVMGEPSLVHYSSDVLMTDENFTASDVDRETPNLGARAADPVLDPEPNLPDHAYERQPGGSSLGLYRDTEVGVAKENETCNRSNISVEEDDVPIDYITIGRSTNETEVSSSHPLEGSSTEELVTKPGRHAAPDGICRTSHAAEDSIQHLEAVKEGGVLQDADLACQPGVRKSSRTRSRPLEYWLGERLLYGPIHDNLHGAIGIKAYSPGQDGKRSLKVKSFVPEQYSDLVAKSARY

T3: CENPC exon 1-5.7 (Zea mays, UniProt Q9XHE1 1-399)
T3 sequence: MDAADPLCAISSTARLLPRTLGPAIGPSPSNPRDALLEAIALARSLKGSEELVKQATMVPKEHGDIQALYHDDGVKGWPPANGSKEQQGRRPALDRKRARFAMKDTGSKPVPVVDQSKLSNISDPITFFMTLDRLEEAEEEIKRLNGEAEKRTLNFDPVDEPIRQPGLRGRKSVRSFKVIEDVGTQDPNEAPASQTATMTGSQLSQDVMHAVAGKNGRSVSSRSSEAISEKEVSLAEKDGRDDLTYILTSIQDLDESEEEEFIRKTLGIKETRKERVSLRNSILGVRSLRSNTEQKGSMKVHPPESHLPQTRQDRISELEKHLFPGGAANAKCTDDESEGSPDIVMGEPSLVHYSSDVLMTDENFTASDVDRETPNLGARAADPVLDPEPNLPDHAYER

T4: CENPC exon 1-8 (Zea mays, UniProt Q9XHE1 1-502)
T4 sequence: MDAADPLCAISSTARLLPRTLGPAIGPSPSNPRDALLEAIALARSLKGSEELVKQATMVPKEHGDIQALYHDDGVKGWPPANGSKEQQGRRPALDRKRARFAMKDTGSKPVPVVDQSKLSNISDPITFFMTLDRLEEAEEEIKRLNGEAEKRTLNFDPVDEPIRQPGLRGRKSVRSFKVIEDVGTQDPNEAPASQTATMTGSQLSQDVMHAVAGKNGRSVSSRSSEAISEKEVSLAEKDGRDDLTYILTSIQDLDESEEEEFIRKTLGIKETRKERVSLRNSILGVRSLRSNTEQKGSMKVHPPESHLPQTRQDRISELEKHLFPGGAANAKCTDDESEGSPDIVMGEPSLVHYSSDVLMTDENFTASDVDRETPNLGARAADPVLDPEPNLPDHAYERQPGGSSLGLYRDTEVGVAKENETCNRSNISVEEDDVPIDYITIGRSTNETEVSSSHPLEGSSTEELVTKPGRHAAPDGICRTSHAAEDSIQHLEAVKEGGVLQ

B1: CentC 44 bp DSDNA (dsDNA)
DNA 1: AATGGGTGACGTGCGGCAACGAAATTGCGCGAAACCACCCCAAA
DNA 2: TTTGGGGTGGTTTCGCGCAATTTCGTTGCCGCACGTCACCCATT

Tests used:
[1] = target: T1, CENPC full length (Zea mays); test: EMSA; settings: 10 mM Tris pH 7.5, 50 mM NaCl, 0.5 mM DTT, 0.5 mM EDTA, 1 mM MgCl2, 4% glycerol, 20 µl, on ice 20 min; 5% PAGE
CENPC Δexon 9-12 = target: T2, CENPC Δexon 9-12; test: EMSA; 10 mM Tris pH 7.5, 50 mM NaCl, 0.5 mM DTT, 0.5 mM EDTA, 1 mM MgCl2, 4% glycerol, 20 µl, on ice 20 min; 5% PAGE; settings: protein: recombinant; tags: His (pET28a); blunt
CENPC exon 1-5.7 = target: T3, CENPC exon 1-5.7; test: as above; settings: protein: recombinant; tags: His (pET28a); blunt
CENPC exon 1-8 = target: T4, CENPC exon 1-8; test: as above; settings: protein: recombinant; tags: His (pET28a); blunt
[2] = target: HIV integrase DNA-binding domain (IntBD) (HIV, UniProt Q9WJL1 220-270); test: EMSA; no RNA; 10 mM Tris pH 7.5, 50 mM NaCl, 0.5 mM DTT, 0.5 mM EDTA, 1 mM MgCl2, 4% glycerol, 20 µl, on ice 20 min; 5% PAGE; settings: chain copies: 2; blunt

Molecule	binding signal [1] [% bound]	binding result (CENPC Δexon 9-12)	binding result (CENPC exon 1-5.7)	binding result (CENPC exon 1-8)	binding result [2]
CentC 67 bp DSDNA	85.3	–	–	–	–
CentC 156 bp DSDNA	95.9	–	–	–	–
B1	–	no binding	no binding	no binding	binds
